In US6277976, “Or-1, an orphan receptor belonging to the nuclear receptor family” (Karo Bio AB):

T1: OR-1 (UniProt Q62755 SEQ:1-446)
T1 sequence: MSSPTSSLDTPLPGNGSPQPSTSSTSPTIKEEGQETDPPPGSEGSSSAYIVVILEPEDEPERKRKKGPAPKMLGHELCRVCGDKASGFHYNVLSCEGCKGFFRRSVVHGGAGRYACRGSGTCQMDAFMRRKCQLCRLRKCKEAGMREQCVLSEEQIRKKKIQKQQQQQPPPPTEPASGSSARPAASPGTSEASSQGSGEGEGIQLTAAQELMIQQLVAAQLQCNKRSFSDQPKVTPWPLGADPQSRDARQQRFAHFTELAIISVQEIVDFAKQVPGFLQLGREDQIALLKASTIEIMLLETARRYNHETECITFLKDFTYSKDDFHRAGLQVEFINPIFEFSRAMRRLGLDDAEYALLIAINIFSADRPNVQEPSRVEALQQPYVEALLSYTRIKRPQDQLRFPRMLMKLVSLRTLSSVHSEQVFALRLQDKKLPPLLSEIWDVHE

T2: OR-1/RXR heterodimer (UniProt Q62755;Q05343 Q62755:1-446,Q05343:1-467)
T2 sequence 1: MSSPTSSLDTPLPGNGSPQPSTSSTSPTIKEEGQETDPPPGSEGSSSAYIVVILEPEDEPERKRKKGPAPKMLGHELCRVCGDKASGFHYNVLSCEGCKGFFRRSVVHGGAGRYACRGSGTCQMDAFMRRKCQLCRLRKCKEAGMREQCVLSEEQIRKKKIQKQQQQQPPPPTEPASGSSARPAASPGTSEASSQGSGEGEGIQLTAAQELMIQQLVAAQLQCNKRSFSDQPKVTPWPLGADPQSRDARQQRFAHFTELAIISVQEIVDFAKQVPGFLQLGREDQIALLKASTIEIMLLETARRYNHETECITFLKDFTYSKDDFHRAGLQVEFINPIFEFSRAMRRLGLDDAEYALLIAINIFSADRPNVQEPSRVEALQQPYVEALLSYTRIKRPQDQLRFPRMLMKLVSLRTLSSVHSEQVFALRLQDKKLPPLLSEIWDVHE
T2 sequence 2: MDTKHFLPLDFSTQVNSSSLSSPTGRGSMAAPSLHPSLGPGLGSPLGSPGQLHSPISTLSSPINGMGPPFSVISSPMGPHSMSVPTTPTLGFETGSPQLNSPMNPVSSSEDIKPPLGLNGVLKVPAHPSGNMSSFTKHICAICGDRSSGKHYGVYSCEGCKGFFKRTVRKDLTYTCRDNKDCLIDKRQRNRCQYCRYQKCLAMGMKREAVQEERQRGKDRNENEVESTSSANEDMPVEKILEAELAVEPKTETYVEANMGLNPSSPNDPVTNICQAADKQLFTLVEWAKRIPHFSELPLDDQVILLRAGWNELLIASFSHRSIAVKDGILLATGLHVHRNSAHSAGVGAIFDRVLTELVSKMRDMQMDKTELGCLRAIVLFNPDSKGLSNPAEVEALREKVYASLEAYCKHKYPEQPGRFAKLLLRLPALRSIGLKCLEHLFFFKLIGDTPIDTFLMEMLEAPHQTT

T3: RXR (RXRalpha) (UniProt Q05343 Q05343:1-467)
T3 sequence: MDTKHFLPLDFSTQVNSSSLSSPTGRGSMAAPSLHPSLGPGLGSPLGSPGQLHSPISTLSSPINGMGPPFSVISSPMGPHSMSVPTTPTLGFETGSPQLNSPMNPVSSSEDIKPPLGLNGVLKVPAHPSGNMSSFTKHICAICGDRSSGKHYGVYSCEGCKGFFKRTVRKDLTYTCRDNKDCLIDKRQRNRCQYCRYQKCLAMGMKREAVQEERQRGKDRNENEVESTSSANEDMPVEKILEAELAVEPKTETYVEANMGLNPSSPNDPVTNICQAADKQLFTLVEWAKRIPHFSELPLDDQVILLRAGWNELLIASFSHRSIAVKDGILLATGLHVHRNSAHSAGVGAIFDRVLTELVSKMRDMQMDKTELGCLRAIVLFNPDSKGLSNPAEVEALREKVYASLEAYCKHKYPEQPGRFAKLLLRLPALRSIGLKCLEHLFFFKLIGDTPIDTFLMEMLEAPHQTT


Legend:
OR-1 [1] = biological target: T1, OR-1; test: EMSA; OR-1 alone; conditions: tags: none; TNT reticulocyte lysate; label: 32P
Description: (§1) Gel shifts were performed using in vitro-translated OR-1 and RXR with the commercially-available TNT™-coupled reticulocyte lysate system (Promega, Madison USA). Proteins were incubated on ice for 15 min with 4 μg of poly (dI-dC) and with unlabelled competitor DNA where indicated in a solution comprising 100 mM KCl; 10 mM Hepes, pH 7.6; 1 mM dithiothreitol; 1 mM EDTA; 10% (wt./vol) glycerol, before addition of 0.5 ng of a ^32P-end labelled oligonucleotide probe. The reaction mixtures were incubated for a further 10 min at 22° C. before electrophoresis at 200V and 4° C. in pre-run 4% polyacryliamide/0.25 TBE (0.089 m tris-borate pH 8.3, 0.025 EDTA) gels. The following oligonucleotides and their complements were used as probes: DR0 […] (SEQ ID NO:3) DR1 […] (SEQ ID NO:4) DR2 […] (SEQ ID NO:5) DR3 […] (SEQ ID NO:6) DR4 […] (SEQ ID NO:7) DR5 […] (SEQ ID NO:8) DR6 […] (SEQ ID NO:9)

OR-1/RXR heterodimer = biological target: T2, OR-1/RXR heterodimer; test: EMSA; 100 mM KCl, 10 mM Hepes pH 7.6, 1 mM EDTA, 22 C; inhibited by 10-fold excess specific DNA, not by 100-fold unrelated DNA; conditions: tags: RXR from pRRXR-T7; label: 32P
Description: as §1
(§2) The appearance of this complex depends on the presence of RXR and is inhibited by a 10-fold excess of the specific DNA target element, but not by a 100-fold excess of an unrelated DNA element—see FIG. 5B, lane 7)

RXR (RXRalpha) = biological target: T3, RXR (RXRalpha); test: EMSA; RXR alone; conditions: tags: none; pRRXR-T7, TNT reticulocyte lysate; label: 32P
Description: as §1, §2

OR-1 [2] = biological target: T1, OR-1; test: EMSA; OR-1 alone; conditions: tags: none; TNT reticulocyte lysate; label: 32P; remark: listed apart in the source
Description: as §1, §2

Row | Binder | binding result (OR-1 [1]) | further results
1 | DR1 (dsDNA) DNA 1: AGCTTCAGGTCACAGGTCAGTTCA DNA 2: TGAACTGACCTGTGACCTGAAGCT | no binding | –
2 | DR3 (dsDNA) DNA 1: AGTCCAGGTCACTCAGGTCAGTCA DNA 2: TGACTGACCTGAGTGACCTGGACT | no binding | –
3 | DR5 (dsDNA) DNA 1: AGTCAGGTCACTCGTAGGTCAGTCA DNA 2: TGACTGACCTACGAGTGACCTGACT | no binding | –
4 | DR0 (dsDNA) DNA 1: AGCTTCAGGTCAAGGTCAGGTTCA DNA 2: TGAACCTGACCTTGACCTGAAGCT | no binding | –
5 | DR4 (dsDNA) DNA 1: AGTCAGGTCACTCGAGGTCAGTCA DNA 2: TGACTGACCTCGAGTGACCTGACT | – | binding result (OR-1/RXR heterodimer): binds; binding result (RXR (RXRalpha)): no binding; binding result (OR-1 [2]): no binding
6 | DR2 (dsDNA) DNA 1: AGCTTAGGTCACCAGGTCAGTTCA DNA 2: TGAACTGACCTGGTGACCTAAGCT | – | binding result (OR-1 [2]): no binding
7 | DR6 (dsDNA) DNA 1: AGTCAGGTCACTCGTTAGGTCAGTCA DNA 2: TGACTGACCTAACGAGTGACCTGACT | no binding | –
